Experimental data reported in article PMC4263359, “Vesicular Stomatitis Virus Polymerase's Strong Affinity to Its Template Suggests Exotic Transcription Models” (PLoS Computational Biology, 2014).

Target: T1, VSV L protein (vesicular stomatitis virus (endogenous …, UniProt P03523 1-2109))
T1 construct: also called catalytic unit of the VSV polymerase; polymerase
Experiment: co-sedimentation
Conditions: partners not purified

T1 sequence (P03523 whole entry): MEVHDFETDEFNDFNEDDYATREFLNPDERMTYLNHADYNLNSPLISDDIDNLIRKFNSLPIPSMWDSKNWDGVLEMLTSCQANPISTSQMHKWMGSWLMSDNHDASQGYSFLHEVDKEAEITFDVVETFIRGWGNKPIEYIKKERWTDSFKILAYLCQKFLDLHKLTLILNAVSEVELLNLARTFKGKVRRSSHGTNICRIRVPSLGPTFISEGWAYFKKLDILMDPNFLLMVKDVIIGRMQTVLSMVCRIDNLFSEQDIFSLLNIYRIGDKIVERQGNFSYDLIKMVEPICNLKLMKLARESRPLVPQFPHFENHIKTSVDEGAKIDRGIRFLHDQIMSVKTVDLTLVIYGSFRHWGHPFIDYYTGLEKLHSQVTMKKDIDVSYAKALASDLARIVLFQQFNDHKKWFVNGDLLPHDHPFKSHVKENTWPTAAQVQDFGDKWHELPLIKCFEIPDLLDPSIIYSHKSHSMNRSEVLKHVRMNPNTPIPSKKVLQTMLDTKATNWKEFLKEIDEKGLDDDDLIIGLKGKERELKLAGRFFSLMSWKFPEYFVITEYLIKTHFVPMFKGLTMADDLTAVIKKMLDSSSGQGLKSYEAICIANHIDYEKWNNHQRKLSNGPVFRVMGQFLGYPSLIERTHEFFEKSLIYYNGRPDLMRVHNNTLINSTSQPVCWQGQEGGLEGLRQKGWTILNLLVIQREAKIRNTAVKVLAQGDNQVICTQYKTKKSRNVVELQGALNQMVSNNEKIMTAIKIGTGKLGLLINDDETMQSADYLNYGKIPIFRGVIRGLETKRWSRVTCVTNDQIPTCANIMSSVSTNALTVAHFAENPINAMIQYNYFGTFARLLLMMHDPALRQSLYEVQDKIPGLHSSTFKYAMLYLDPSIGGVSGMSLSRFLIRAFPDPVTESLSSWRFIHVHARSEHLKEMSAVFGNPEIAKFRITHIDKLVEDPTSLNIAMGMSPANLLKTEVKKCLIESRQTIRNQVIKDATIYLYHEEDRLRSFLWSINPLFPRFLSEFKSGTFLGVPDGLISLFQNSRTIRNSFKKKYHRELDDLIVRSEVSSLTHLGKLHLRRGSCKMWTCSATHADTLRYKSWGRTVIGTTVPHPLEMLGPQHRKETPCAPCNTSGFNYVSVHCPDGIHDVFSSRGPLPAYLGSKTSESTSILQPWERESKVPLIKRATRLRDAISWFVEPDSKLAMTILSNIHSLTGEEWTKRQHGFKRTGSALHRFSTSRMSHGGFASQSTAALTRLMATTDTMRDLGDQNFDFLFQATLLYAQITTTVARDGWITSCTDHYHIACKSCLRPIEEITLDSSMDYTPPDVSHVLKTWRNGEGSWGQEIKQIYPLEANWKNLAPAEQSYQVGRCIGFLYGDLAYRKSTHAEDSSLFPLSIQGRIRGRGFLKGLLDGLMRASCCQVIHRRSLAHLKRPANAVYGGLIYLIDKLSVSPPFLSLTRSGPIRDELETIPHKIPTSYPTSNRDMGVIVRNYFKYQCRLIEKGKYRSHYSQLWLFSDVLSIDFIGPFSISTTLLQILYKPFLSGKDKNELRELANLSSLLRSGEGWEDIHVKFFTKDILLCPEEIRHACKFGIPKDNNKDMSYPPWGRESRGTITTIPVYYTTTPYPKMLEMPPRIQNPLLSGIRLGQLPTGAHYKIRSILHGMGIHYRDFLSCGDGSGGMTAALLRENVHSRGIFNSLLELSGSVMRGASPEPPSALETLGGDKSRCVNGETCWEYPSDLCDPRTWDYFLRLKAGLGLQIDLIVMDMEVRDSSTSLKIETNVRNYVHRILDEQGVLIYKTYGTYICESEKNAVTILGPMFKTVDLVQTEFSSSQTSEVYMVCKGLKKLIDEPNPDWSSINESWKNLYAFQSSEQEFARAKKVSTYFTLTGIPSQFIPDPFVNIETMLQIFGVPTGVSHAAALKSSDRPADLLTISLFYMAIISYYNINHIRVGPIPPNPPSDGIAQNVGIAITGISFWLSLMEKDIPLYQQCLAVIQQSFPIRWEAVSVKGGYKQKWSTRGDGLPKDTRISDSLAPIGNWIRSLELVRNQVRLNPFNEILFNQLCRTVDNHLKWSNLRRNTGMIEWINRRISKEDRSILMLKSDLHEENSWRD

B1: full genome template (N-RNA) bound with P and L extracted from detergent-disrupted virions (complex)
chain 1: MSVTVKRIIDNTVIVPKLPANEDPVEYPADYFRKSKEIPLYINTTKSLSDLRGYVYQGLKSGNVSIIHVNSYLYGALKDIRGKLDKDWSSFGINIGKAGDTIGIFDLVSLKALDGVLPDGVSDASRTSADDKWLPLYLLGLYRVGRTQMPEYRKKLMDGLTNQCKMINEQFEPLVPEGRDIFDVWGNDSNYTKIVAAVDMFFHMFKKHECASFRYGTIVSRFKDCAALATFGHLCKITGMSTEDVTTWILNREVADEMVQMMLPGQEIDKADSYMPYLIDFGLSSKSPYSSVKNPAFHFWGQLTALLLRSTRARNARQPDDIEYTSLTTAGLLYAYAVGSSADLAQQFCVGDNKYTPDDSTGGLTTNAPPQGRDVVEWLGWFEDQNRKPTPDMMQYAKRAVMSLQGLREKTIGKYAKSEFDK
chain 2: MDNLTKVREYLKSYSRLDQAVGEIDEIEAQRAEKSNYELFQEDGVEEHTKPSYFQAADDSDTESEPEIEDNQGLYAQDPEAEQVEGFIQGPLDDYADEEVDVVFTSDWKPPELESDEHGKTLRLTSPEGLSGEQKSQWLSTIKAVVQSAKYWNLAECTFEASGEGVIMKERQITPDVYKVTPVMNTHPSQSEAVSDVWSLSKTSMTFQPKKASLQPLTISLDELFSSRGEFISVGGDGRMSHKEAILLGLRYKKLYNQARVKYSL
notes: also called whole genome template; copies: 1250 +
B1 was tested, and the Kd was 0.02 nM.
